Publication PMC6637204, “Inactivating mutations and X-ray crystal structure of the tumor suppressor OPCML reveal cancer-associated functions” (Nature Communications, 2019)
Where a chain is given by its changes, count along the chain named. Numbers in names are those of the source.

Assays:
[1] = molecular target: the molecule itself; experiment: SDS-PAGE without heat denaturation, western blot; extracts of transduced cells run without prior heat denaturation, anti-OPCML blot
[2] = SYPRO Orange thermal shift assay; details: glycan lost; control: wild type
[3] = recombinant secretion from insect cells; details: glycan lost; control: wild type
[4] = Caspase-Glo 3/7 assay, SKOV3; details: glycan lost; control: wild type
[5] = gel filtration; details: glycan lost; control: wild type
[6] = immunofluorescence confocal microscopy; details: glycan lost; control: wild type
[7] = MTS viability, R428 IC50, SKOV3; details: glycan lost; control: wild type
[8] = western blot, transduced SKOV3, PEA1, PEO1; details: glycan lost; control: wild type
[9] = molecular target: the molecule itself; experiment: SAXS; WT OPCML in 50 mM HEPES pH 7.5, 200 mM sodium chloride, 2% glycerol, 0.02% sodium azide; three concentrations merged; fit to dimer and monomer models
[10] = molecular target: the molecule itself; experiment: SEC; gel filtration; dilutions equilibrated 24 h, 50 µL on Superdex 200 10/30 GL at 0.5 mL/min; peak elution volume against concentration fit to a monomer-dimer equilibrium (dimer to monomers)
[11] = molecular target: the molecule itself; experiment: SEC-MALLS; samples at 1 µg/µL, 1 mL/min in PBS pH 7.4, room temperature

B1: wild-type OPCML expressed in transduced cancer cells (natural protein, human, UniProt Q14982 28-322, looked up)
chain: GVPVRSGDATFPKAMDNVTVRQGESATLRCTIDDRVTRVAWLNRSTILYAGNDKWSIDPRVIILVNTPTQYSIMIQNVDVYDEGPYTCSVQTDNHPKTSRVHLIVQVPPQIMNISSDITVNEGSSVTLLCLAIGRPEPTVTWRHLSVKEGQGFVSEDEYLEISDIKRDQSGEYECSALNDVAAPDVRKVKITVNYPPYISKAKNTGVSVGQKGILSCEASAVPMAEFQWFKEETRLATGLDGMRIENKGRMSTLTFFNVSEKDYGNYTCVATNKLGNTNASITLYGPGAVIDGVN
notes: OPCML, human, WT cDNA from pENTR4 shuttled to pLenti CMV Puro DEST; GPI-anchored, membrane-localized; also called WT OPCML; WT; source: SKOV3, PEA1, PEO1 and HCT116 cells, stably transduced (lentivirus, pLenti CMV Puro DEST); on cells or in lysate
- stoichiometry N [1]: 2

B2: OPCML: N70H (protein)
parent chain: MGVCGYLFLPWKCLVVVSLRLLFLVPTGVPVRSGDATFPKAMDNVTVRQGESATLRCTIDDRVTRVAWLNRSTILYAGNDKWSIDPRVIILVNTPTQYSIMIQNVDVYDEGPYTCSVQTDNHPKTSRVHLIVQVPPQIMNISSDITVNEGSSVTLLCLAIGRPEPTVTWRHLSVKEGQGFVSEDEYLEISDIKRDQSGEYECSALNDVAAPDVRKVKITVNYPPYISKAKNTGVSVGQKGILSCEASAVPMAEFQWFKEETRLATGLDGMRIENKGRMSTLTFFNVSEKDYGNYTCVATNKLGNTNASITLYGPGAVIDGVNSASRALACLWLSGTLLAHFFIKF
- stability_or_folding, Tm [2]: decreases
- expression_or_secretion [3]: decreases
- other: R428-induced apoptosis [4]: abolishes
- other: aggregation [5]: increases
- localisation_or_trafficking [6]: no change
- other: sensitisation to AXL inhibitor [7]: abolishes
- expression_or_secretion [8]: no change

B3: soluble recombinant wild-type OPCML (residues 36-316, D1-D3) (domain or fragment, human, UniProt Q14982 36-316, looked up)
chain: ATFPKAMDNVTVRQGESATLRCTIDDRVTRVAWLNRSTILYAGNDKWSIDPRVIILVNTPTQYSIMIQNVDVYDEGPYTCSVQTDNHPKTSRVHLIVQVPPQIMNISSDITVNEGSSVTLLCLAIGRPEPTVTWRHLSVKEGQGFVSEDEYLEISDIKRDQSGEYECSALNDVAAPDVRKVKITVNYPPYISKAKNTGVSVGQKGILSCEASAVPMAEFQWFKEETRLATGLDGMRIENKGRMSTLTFFNVSEKDYGNYTCVATNKLGNTNASITLYGPGA
modifications: N-linked glycans modelled at asparagines 70, 293 and 306
notes: OPCML, human, UniProt Q14982, residues 36-316 (D1-D3); also called WT OPCML; rOPCML; source: Hi5 insect cells, baculovirus, secreted; purified (protein A, thrombin digestion, negative protein A, HiTrap Q, SEC); not shown: Fc (human IgG1, UniProt P01857 residues 118-330, joined by ALVPRGS), C-terminal, cleaved
- stoichiometry N [9]: 2

B4: soluble recombinant OPCML R65L (residues 36-316) (domain or fragment, human, UniProt Q14982 36-316, looked up)
chain: B3 chain with R30L
notes: OPCML, human, UniProt Q14982, residues 36-316 (D1-D3), clinical somatic mutation R65L; Same construct as m1 with R65L; PDB 5UV6 is the wild-type parent; ALVPR probably left at the C-terminus after thrombin (surmised); also called rR65L; source: Hi5 insect cells, baculovirus, secreted; purified (protein A, thrombin digestion, negative protein A, HiTrap Q, SEC); not shown: Fc (human IgG1, UniProt …)
- fold weaker Kd than WT OPCML [10]: ≥ 250 fold

B5: soluble recombinant OPCML P95R (residues 36-316) (domain or fragment, human, UniProt Q14982 36-316, looked up)
chain: B3 chain with P60R
notes: OPCML, human, UniProt Q14982, residues 36-316 (D1-D3), clinical somatic mutation P95R; Same construct as m1 with P95R; PDB 5UV6 is the wild-type parent; ALVPR probably left at the C-terminus after thrombin (surmised); also called rP95R; source: Hi5 insect cells, baculovirus, secreted; purified (protein A, thrombin digestion, negative protein A, HiTrap Q, SEC); not shown: Fc (human IgG1, UniProt …)
- stoichiometry N [11]: 2
